Laboratory results reported in the DeepSol protein solubility set.

assay: soluble on expression in E. coli; label from the status in PepcDB or PDB records

| Sequence | soluble on expression in E. coli |
| --- | --- |
| MKEPLDLSKYSVRTDLAVEAHQMLQERQEEQQQGIQGVIVKEREEEGIIITKVTIDEVASESMGKKPGNYLTLEVQGIRQQDTELQQKVERIFAKEFSYFLEEVGVTKEASCLIVGLGNWNVTPDALGPIVVENVLVTRHLFQLQPESVEEGFRPVSAIRPGVMGITGIETSDVIYGIIEKTKPDFVIAIDALAARSIERVNSTIQISDTGIHPGSGVGNKRKELSKETLGIPVIAIGVPTVVDAVSITSDTIDFILKHFGREMKEGNKPSRSLLPAGFTFGEKKKLTEEDMPDEKSRNMFLGAVGTLEDEEKRKLIYEVLSPLGHNLMVTPKEVDAFIEDMANVIASGLNAALHHQIDQDNTGAYTH | not soluble |
| MKERMQKTSAQAHDFPQRARTESEWYEGVQTFMWMTEDNIVEVPFDKEHLLEIILSPSNLNKAYKAVVRNNGSGGIDKMSCEQLLSWLKANKDELIISLQSGTYRPNPVRRVEIPKDNGKKRLLGIPTVVDRLVQQAINQVLTLIYERQFSKTSYGFRPQRGCHDALRKAQKIVSEGYIYVVDLDLERFFDTVSHSKLIEILSRTIKDGRVISLIHKYLRSGVINRGMFEMSTEGTPQGGPLSPLLSNIMLNELDKELERRGHPFVRYADDAMIFCKSKRAAKRVRESITLFIEGKLFLKVNHEKTVVSYVKGVKFLGYSFYVKKGDCILLVHSKSKNKMKSKLKELTSRSNGWGYEKRKQKLKDYIRGWIAYFCLAQMKRLCIETDEWLRRRIRMCIWKSWKNAKTRVANLKKCGVSEWQAYQWGNTRLGYWRVSNSPIVTFVMSNDKLRKAGYMEFMDCYLKWCPKLEHHHHHH | soluble |
| MKESAASVAVRPQLREVFERFPADAHRTIEDEIHEMMKCYAFDDAIFLAELHYETDKSNNSESLLLYADCLYRANKKEECYGLLSSVKLSGARLFYLLARVSYDLNKIDDCRGALFEHDDGVIRKDILEEPRVASHANLLHAQMLCDESYMDLALESCQKSLDENILLWSAIITYLRFGGHDLAHTFEKHHRKSNGLYLDSPASSLKSETPSPNVPGPSSSSAASTAEPSRLESSVRRSTRGTIASANRETRNTTSNITPRQSTPGSTPSRINPTAPRKSSRISEMTTRRTESSVTGSRSSLFTEPERPHTRATHSSRNRANAALNSDTENSNASNTRTRSGIASVTRGSSSSQRTNPVRTSIRIADAAAAANKTAKTLSQRRRNEKQPLVSRNSNLARSLSGSTNSVASTASERPSEDEVSQINPPLPSVASSLNNDEPMDIVDGVYDPEYKKLFDVYQHIALIEESISTYNWRSADALFAKLDRDIILNTSMVRLQLGRACFEQSEYRECRNILDDLHKRRKWKVDGTELLSTSMWHLQDTHALSALSQILTTESRERPQSWCAAGNCFSLQRQHTQAIECMERAIQLDKRFAYAYTLLGHELIVQDELDKAAGSFRSALLLSPRDYRAWYGLGLVHLKKEQNLTALTNIQKAVNINPTNRAMLCTLSQIEQQRGQIDTALVLIDRALTLNPLDVACRFNRSRLLFEANRNEECLVELDKLKASSPDEAFIFHLLARVHRRMGNTHLALLNYSWAAELDPRGEQNITDSNVINREEYEDDEYGSPV | not soluble |
| MKFCSQCGGEVILRIPEGDTLPRYICPKCHTIHYQNPKVIVGCIPEWENKVLLCKRAIAPYRGKWTLPAGFMENNETLVQGAARETLEEANARVEIRELYAVYSLPHISQVYMLFRAKLLDLDFFPGIESLEVRLFGEQEIPWNDIAFRVIHDPLKRYMEERHHGQPAFHLGIINKPQAGSNSNE | soluble |
| MKFDVIIVGAGPGGMFAAYKLAGKLNTAIFEMGRDISKRKCPSDLSESYCTKCNPCNITSGVGGAGGLSDGKLNYVHPEYPSSFSVGGDFDFLDPNYLIEKMNEVDEIFLKHGAPDELYGDDLEKIEDFLKRANAAGIEFVPLRQRHVGSDELPKVVKSIEDKLKKEGVKIYTRKTVVDIDPERKVVRTEKGEEFGYDYLIIAVGRSGASWLEKWARDYNLEVAENSKAIDVGVRVEVPASIMDDITSAIYDPKLRVITKRHDDYMRTFCTCPRGWVIREDYGDFCLVNGHSKAKEKSSNTNFALLGHYEFTEPFDEPNEWGRDLARITTKLGGGNPIVQRLKDLRLGRRSTESRIKNNRLVQPTLKTAIPGDISLAYPGRAIDDILDALERLDKVIPGVADDSTLLYAPEVKFYSLKLKVDEWMKTNIPYIYAIGDGAGVSRGIVGAAVTGLIAAEGILRERGMELEHHHHHH | soluble |
| MKFEAIAVEKIPLIHEGDNLPSIICEKIGLQDRDIMIIASTIVAKAEGEIFRLEDITPGEEALEIAARTGKDPRFIQAVLSKSREVFVETPFMLVTTLAGHTCVNAGIDESNIENGFLLYPPENPDASALKIGKELEKLSGKKLSIIITDTNGRAFKIGQTGVAIGIYNIKPVKRWIGEKDLFGKVLEITEQAIADELAGAANLLMGEGAGGIPVVIIRGLDYYCEGDTSIKESYRPENMDVIKQGLRCLRNKK | not soluble |
| MKFILRLGLALLTGFVSVSTASAQAYGTADTNAPELRVPKSVQPAFDYWMRDTWATLGPDGYYYITGTTSTPDRHFPGQRHCWDWNDGLYLWRSKDLKIWEAMGRIWSMEKDGTWQKDPKVYKEGEKYAKKSINNDPMDNRFHAVWAPEMHYIKSAKNWFIVACMNQSAGGRGSFILRSTTGKPEGPYENIEGNEDKAIFPNIDGSLFEDTDGTVYFVGHNHYIARMKPDMSGLAEEIKTLKESKYSPEPYVEGAFIFKYDGKYHLVQAIWAHRTVKGDTYVEKEGLTNKKTRYSYDCIIATADNVYGPYGKRYNAITGGGHNNLFQDKDGNWWATMFFNPRGAQAAEYKVTCRPGLIPMLYENGKFKPNHNYQAK | not soluble |
| MKFKKYILTGTLALLLSSTGIATIEGNKADASSLDKYLTESQFHDKRIAEELRTLLNKSNVYALAAGSLNPYYKRTIMMNEYRAKAALKKNDFVSMADAKVALEKIYKEIDEIINR | not soluble |
| MKFLSFIFLVSLCAVTSQINAQAPELPLDKIKLPPGFSISVWANVPDARTMTLGDKGTVFVGSKSAGNVYAITENAGKRQIRIIASKLKMPNGVAFHDGALYVSSVNRILRFDNIENTLDQPLPPRIITADYPKETYHGWRFIAFGPDGWLYVPVGSSCNVCETDLEHYALISRIRPDGSNYEVFAKGVRNTEGFDWHPVTKALWFTDISREWMGDNLPPDELNHASNQGLDFGFPYCHGKEVSDPKLGAKRDCNKFIPPAVELDPHVAPMGMRFYTGTMFPAEYHNGIFIAEHGSWNRSTKIGYRLEWVQLEVNEVARKEIFAEGWLQENEAWGRPVDVLVMPDGALLVSDDMAGVVYRISYDQP | not soluble |
| MKFPGKRKSKHYFPVNARDPLLQQIQPENESSVSWVVGIDQTLVDIEAKVDEAFIVRYGLSAGHSLVIEDDVAEALYQELVRNNLITHQFAGGTIGNTMHNYSVLADDRSVLLGVMCSNIEIGGYAYRYLCNTSSRTDLNYLQGVDGAIGRCFTLIGDSGERTFAISPGHMNKLRPESIPEAVIAGASALVLTSYLVRCKPGEPMPDATMKAIEYAKKHDVPVVLTLGTKYVIADNPAWWQEFLQEHVSILAMNEEEGEALTGFADPLSAANKALDWVDLVLCTAGPAGLYMAGFTEEEAKRKTQHPLLPGAIPEFNQFEFSRAMRHQDCVNPLRIYSHIAPYMGGPEKIMNTNGAGDGALAALLHDITANNYHRNNVPNSSKHKCKWLTYSSLAQVCKYANRVSYQVLNQHSPRLTRGLPEREDSLEEAYWDR | not soluble |
| MKFQCSSCGLRMDSLHFKQEGLMNPKLTSICDICRTRNLNPEEYSNNAVSTFAQSLLYTFVGADKKQDQLNFIVKNKKARKKYEAFLQDYDGNEIARQQIKRSDFNLAVIKSEDGQNDYVPNQDITFEQNLKKMGLEINFQLNEVDFIDRERIRAKYKYRCQYCGRRGHSVDHKDPVSLSHNNSLDNLTLACAECNRIKSDMPYKLFIQLNDQISDINKKLVKYENALGTLREEFEHRRRYLAAQVHLKGIINDPELNEIRKQNKSLQDAIDSLQSDYDDLRQIRKTYFDTGWKLARIKENNDIILEHHHHHH | not soluble |
| MKFSTIFGATTVMTAVSAAAVSSVMTTKTITATNGNNVYTKVVTDTADPIISYSTTRTVVVSNSDATYTKVVTEGPDTTSEKSTTKTLTLTNGSGSSTNLYTKTVTQAVESSTSSSSSSSSSSSSASSSGAAPAAFQGASVGALALGLISYLL | soluble |
| MKFVAPEQAPEQAEVIKNTPFWPDVDLSEFRSVMRTDGTVTQPRLKQVVLTAISEVNAELYDFRNRQQMLGWRTLAEVPAEMLDGKSERIRHYHNAVFCWARAVLNERYQDYDATASGVKRGEELAEASGDLWRDARWAISRVQDVPHCTVELI | not soluble |
| MKFYEEKIDSKRVFEGKMISVRVDRVRLPDGRESTREVVDHPGAVVIVPVLGGKILFVEQYRYPIEQVLLELPAGKLDPGESPEECAKRELEEETGYRAKKLSYLGKIFTTPGFTTEVIHIFAAEDLEKTSQNTDPDEFIEVKEVPIEEALSLLKNAEIEDSKTICALTRFFFAKGVIR | soluble |
| MKGGRNRWVTAQESTLALASKCEQFDPDGITLYVFSGRFKRYENVTSAKVNQIFQENDPSGTTDLAAVLKHATDDYFQRKGAGKTKPNGETILVVTDGEPDDRKAVMRVIIEASRRMDKDEELAISFIQVGSDAQATRFLKVLDDELQGAGAKFDICDTVTMEDMEDLSLSEVLLNAITDLEHHHHHH | not soluble |
| MKGHCHCGAVRWQSDGKVAWSCYCHCADCRRNCAAPVTAFFGLPHESVTWSGDAPRIYRSTDRVERLFCGTCGTQMAYRNADDRVNIHLYTATLEDPSALPPRFHVFHTARLPWLDLQDDLPRFDRTAG | not soluble |
| MKGIILAGGTGSRLYPITKVTNKHLLPVGRYPMIYHAVYKLKQCDITDIMIITGKEHMGDVVSFLGSGQEFGVSFTYRVQDKAGGIAQALGLCEDFVGNDRMVVILGDNIFSDDIRPYVEEFTNQKEGAKVLLQSVDDPERFGVANIQNRKIIEIEEKPKEPKSSYAVTGIYLYDSKVFSYIKELKPSARGELEITDINNWYLKRGVLTYNEMSGWWTDAGTHVSLQRANALARDINFGKQFNGE | not soluble |
| MKHHHHHHPMSGLVPRGSAMGEPLASASKFSSIVSNDIDMNFRSFKFWVHNDNLMEVKTRILRHLPVLVYANVPSENDDLVNRFESDISNNDEIVGSSSSTSSVEHGLGARSFDPLINTLYFDNEHFELYNDKLLKLNSAPTLRLRWTGQLSDKPDIFLEKKTLIEDEATGKSEFDLTKLQLKQKFINGFIFEGDKKFKEQTLKKLKESGTAGRDLERLEEDFSEIQNFIIKNELQPVFRTVYTRTAFQIPGDDKIRVTIDSNIVFIKEDSFDRERPIRDPNTWHRTDIDANVANPLKFLRGGEYAKFPYSVMEIKVKSSLDSSMSASSMISNVKLPKKHGQWLNDLTNSHLVKEIPKFSIFVQGVASLYGDDEKLDILPFWLPDLETDIRQ | soluble |
| MKHLLLASLLGSAMAMSSLVMAADTDLKTLEAAAKAEGAVNSLGMPDDWANWGGIWKDLETKYGLKHMDTDMSSAQEIAKFDAEKDNASGDIGDVGAAFGPIAVAKGVTQPYKPTTWEQIPDWAKDKDGHWALAYTGTIAFIVNKNLLHGSEIPKSWADLKTGKYKVSIGDVSTAAQATNGVLAAAIAMKGDESNIEPGLALFTDLAKQKRLSLANPTIQTIEKGEIEVGVVWDFNGLNYKAKMAKPDDYVVLIPSDGSVVSGYTTIINKYAKHPNAAKLAREYTFSDAGQINLAKGNARPIRVEHIKLPDDVKAQLLPHEQYLNAKPIKDADAWEKTSKALPQKWNEQVIIEMN | not soluble |
| MKHLNFILAGLFFLCGLCCRAQVLPLEENVVLNTKEGQIKGKLLLPGGVKTCPVVLIIAGSGPTDMDGNSAIGNLRNNSLKFLAEGLAANGIASLRFDKRGIGTSASAGKEEAKLRFEDYVNDVTGWIDYLAKEKRFTTITVAGHSEGALIGMLACQNRPKVKGYISVAGAGRPAYEIIEAQVAAQQNPEAVRKEVASINGSLKNGKEVSDVPAYLQSLYRASVQPYLISWFKYNPRTVIASVKVPVLIVQGKNDIQVSVEDAELLKKGCPAAELLLIDKMNHVLKDCESKAVQQQMLTYGNPSLPVNSTLIASVSTFVKKLK | not soluble |
